Laboratory results: the nanobody polyreactivity screen of Harvey et al. (2022)

Assay: yeast display, Sf9 membrane polyspecificity reagent, FACS + sequencing; frameworks hold sequencing errors
In short: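 Galactose induction of a Saccharomyces cerevisiae BJ5465 synthetic nanobody display library ran 36–48 hours. The cells were then stained for 1 hour at 4 °C with 10% biotinylated, detergent-solubilized Sf9 membrane reagent, pulled down on streptavidin microbeads and FACS-sorted into low and high (top ~1%) gates on expression and reagent-binding fluorescence. Labels for polyreactivity follow the gate of origin.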

Sequence	polyreactivity (PSR sort gate)
QVQLVESGGGLVQAGGSLRLSCAASGSTLRRYAMGWYRQAPGKERELVAAISGTGSRTYYADSVNGRFTISRDNAKNTDYLQMNSLKPEDTAVYYCNASQYRLTENDYWGQGTQVNVSS	high polyreactivity
QVQLVESGGGLVQAGGSLRLSCAASGSTLRTNAMGWYRQAPGKERELVAAISSSAGSTYYADSVKGRFTISRDNAKNTVYLQMNSLKQEDTAVYYCAKQPGSAYGYWGQGTQVTVSS	high polyreactivity
QVQLVESGGGLVQAGGSLRLSCAASGSTLRVNAKGWYRQAPGKERELVAAISYRGGSTYYADSVKGRFTISRDNAKNTVYLQMNSLKPEDTAVYYCAAKQGATRGYYYWGQGTQVTVSS	high polyreactivity
QVQLVESGGGLVQAGGSLRLSCAASGSTLRWYAMGWYRQAPGKERELVARISWTTGSTYYADSVKGRFTISRDNAKNTVYLQMNSLKPEDTAVYYCAKGKKSSRSGIYNYWGQGTQVTVSS	high polyreactivity
QVQLVESGGGLVQAGGSLRLSCAASGSTLRWYTMGWYRQAPGKESELVATNSRGGTTNYADSVKGRFTISRDNAKNTVYLQMNSLKPEDTAVYYCASRDFWWSRRIFGYWGQGTHVTVSS	high polyreactivity
QVQLVESGGGLVQAGGSLRLSCAASGSTLRYYAMGWYRQAPGKERELVARIRSNGGSTYYADSVKGRFTISRDNAKNTVYLQMNSLKPEDSAVYYCAARTYRGQYYTGFGFGYWGQGTQVTVSS	high polyreactivity
QVQLVESGGGLVQAGGSLRLSCAASGSTLSAYVMGWYRQAPGKERELVAAISQSADSTYYADSVKGRFTILRDNAKNTVYLQMNSLKPEDTAVYYCAAEYPYIYRFDYWGQGTQVTVSS	low polyreactivity
QVQLVESGGGLVQAGGSLRLSCAASGSTLSDNAMGWYRQAPGKERELVARISGDGSTNYADSVKGRFTISRDNAKNTVYLQMNSLKPDDTAVYYCNAGTAGIYYYGKSDYWGQGTQVTVSS	low polyreactivity
QVQLVESGGGLVQAGGSLRLSCAASGSTLSENVMGWYRQAPGKERELVATISYSGDSTYYADSVKGRFTISRDNAKNTVYLQMNSLIPEDTAVYYCNADHFVTVGQFDWYDSWGQGTQVTVSS	low polyreactivity
QVQLVESGGGLVQAGGSLRLSCAASGSTLSKYGMGRYRQAPGKERELVAAISYSSGSTYYADSVKGRFTISRDNAKNSVYLQMNSLKPEDTAVYYGAADRFRRLHYWTYDYWGQGTQVTVSS	high polyreactivity
QVQLVESGGGLVQAGGSLRLSCAASGSTLSRYAMGWYRQAPGKERELVAAISRRGGSTFYADSVKGRFTISRDNAKNTVYLQRNSLKPEDTAVYYCAALSNHGYYIRMDYWGQGTQVTVSS	high polyreactivity
QVQLVESGGGLVQAGGSLRLSCAASGSTLSRYAMGWYRQAPGKERELVAAISWSGGRTYYADSVKGRFTISRDYAKNTVYLQMNSLKPEDTAVYYCAARYGYRTPDGDYWGQGTQVTVSS	high polyreactivity
QVQLVESGGGLVQAGGSLRLSCAASGSTLTFNAMGWYIQAPGKERELVAAISWSDTDTYYADSVKGRFTISRDNAKNTVYLQMNSLKPEDTAVYYCAATLSAYEMDYWGQATQVTVSS	low polyreactivity
QVQLVESGGGLVQAGGSLRLSCAASGSTLTFNAMGWYRQAPWKERELVAAISWSDTDTYYADSVKGRFTISRDNAKNTVYLQMNSLKPEDTAVYYCAATLSAYEMDYWGQATQVTVSS	low polyreactivity
QVQLVESGGGLVQAGGSLRLSCAASGSTLTRNDMGWYRQAPGKERELVAAITFSGSDTYYADSVKGRFTISRDNANNTVYLQMNSLKPEDTAVYYCAAEYGGYEYDQWGQGTQVTVSS	low polyreactivity
QVQLVESGGGLVQAGGSLRLSCAASGSTLTVNVMGWYRHAPGKEREFVAAINDSGSTYYADSVKGRFTISRDNAKNTVYLQMNSLKPEDTAVYYCATYYWVGLSLYDYWGQGTQVTVSS	low polyreactivity
QVQLVESGGGLVQAGGSLRLSCAASGSTLVAYAMGWYRQAPGKERELVAAISRSGGNTYYADSVKGRFTISRDNAKNTVYFQMISLKPEDTAVYYCAAVRLYRYDYWGQCTQVTVSS	low polyreactivity
QVQLVESGGGLVQAGGSLRLSCAASGSTLVDYAMGWYRQAPGKERQLVAAITSGGSTNYADSVMGRFTISRDNAKKTVYLQMNSLKPEDTAVYYCAAEWQRGLQAEYYYWGQGTKVTVSS	low polyreactivity
QVQLVESGGGLVQAGGSLRLSCAASGSTLVGNAMGWYRQAPGKEMELVAVISYRGGSTYYADSVKGRFTISRDNAKNTVYLQMNSLKPEDTAVYDCAARYYRNPVFVIMDYWGQGTQVTVSS	high polyreactivity
QVQLVESGGGLVQAGGSLRLSCAASGSTLVGNAMGWYRQAPGKERELVAAISSSGTSTYYADSVKGRFTISRDNAKNTVYLQMNSLKPEDTAVYYCAAYVYGVGMDYWGQGTQVTVSS	high polyreactivity
QVQLVESGGGLVQAGGSLRLSCAASGSTLVGNTMGCYRQSPGKERELVAAITGVGSTNYADSVKGRFTISRDNAKNTVYLQMNSLKPEDTAVYYCAAQYSYTYIVSYLYDMDYWGQGTQVTVSS	low polyreactivity
QVQLVESGGGLVQAGGSLRLSCAASGSTLVRYAMGWYRQAPGKERELVAAISGSGGSTFYADSVKGRFTISRDNAKNSVYLQMNSLKPEDTAVYYCAARYYWYGRAGNKHASYYYWGQGTQVTVSS	high polyreactivity

Sequence	polyreactivity (PSR sort gate)
QVQLVESGGGLVQAGGSLRLSCAASGSTLVVNGMGWYRQAPGKERELVASISSDGSTNYADSVKGRFTISRDNAKNTVYLQMNSLKPEDTAVYYCASDEGTGQASLSSNLYDYWGQGTQVTVSS	low polyreactivity
QVQLVESGGGLVQAGGSLRLSCAASGSTLVVYAMGRYRQAPGIERELVAAISSIGGRPYYADSVKGRFTISRDNAKYTVYLQMNSLKPEDTAVYYCTALRYVVYFDDDYWGQGTQVTVSS	high polyreactivity
QVQLVESGGGLVQAGGSLRLSCAASGSTLYANAMGWYRQAPGKEMALVAAITRTGGNTYYADSVKGRFTISRDNAKNTVYFQMNSLKPEDTAVYYCAARNPPTDHTGYQSSVLPGRYYWGQGTQVTVSS	low polyreactivity
QVQLVESGGGLVQAGGSLRLSCAASGSTLYGYAMGWYRQAPGKERELVAAISVSGGRTYYADSVKGRFTISRDNAKNTVYLQMNSLKPEDTAVYYCAAYGTTRMDYWGQGTQVTVSS	high polyreactivity
QVQLVESGGGLVQAGGSLRLSCAASGSTLYKYAMGWYRQAPGKEREFVAAISWSGSSTYYADSVKGRFTISRDNAKNTVYLQMNSLKPEDTAVYYCAALYTHYYWIEYDYWGQGTQVTVSS	low polyreactivity
QVQLVESGGGLVQAGGSLRLSCAASGSTLYRYAMGWYRQAPGKERELVAAISSAGSTHYADSVKGRFTISRDNAKNTVYLQMNSLKTEDTAVYYCADKRYLKYGYWGQGTQVTVSS	high polyreactivity
QVQLVESGGGLVQAGGSLRLSCAASGSTLYRYAMGWYRQAPGKERELVATIRWSGGSTYYADSVKGRFTISRDNAKNTVYLQMNSLKPEDTAVYYCAKRSSYGSSGRYYYWGQGTQVTVSS	high polyreactivity
QVQLVESGGGLVQAGGSLRLSCAASGSTLYSYVMGWYRQAPGKERELVAAIRSSGGSTYYADSVKGRFTISRDNAKNTVYLQMNSLKPEDTAVYYCAKEWKVDVASKFLYHYYYWGQGTQVTVSS	high polyreactivity
QVQLVESGGGLVQAGGSLRLSCAASGSTLYWNAMGWYRQAPGKERELVASITSSGGSTYYADSVKGRFTISRDNAKNTVYLQMNSLKPEDTAVYYCATESWWRYSEYYYWGQGTQVTVSS	low polyreactivity
QVQLVESGGGLVQAGGSLRLSCAASGSTLYWYAMGWYRQAPGKERELVAGISIGGRTNYADSVKGRFTISRDNAKNTVYLQMNSLKPEDTAVYYCNAENTYLGSRYRPYNYWGQGTQVTVSS	low polyreactivity
QVQLVESGGGLVQAGGSLRLSCAASGSTQYKYAMGWNRQAPGKERELVAAISWSGSSTYYADSVKGRFTISRDNAKNTVYLQLNSLKREDTAVYYCAAYPRPYIGYTDGYVWYEFDYWGQGTQVTVSS	low polyreactivity
QVQLVESGGGLVQAGGSLRLSCAASGSTQYPYAMGWYRQAPGKERELDAAISWSGGSTYYADSVKGRFTISRDPAQNTVYLQMNSLNPEDTAVYYCAAVYHFQYGAYDYWGQGTQVTVSS	high polyreactivity
QVQLVESGGGLVQAGGSLRLSCAASGSTQYSYAMGWYRQAPGKERELVAAINSGSNTYYADSVKGRFTISRDNAKNTVYLQMNSLKPEDTAVYYCAAKGIIYTGYDGARRAYGYWGQGTQVTVSS	high polyreactivity
QVQLVESGGGLVQAGGSLRLSCAASGSTRIYDMGCYRQAPAKERELVAAISSTGSTYYADSVKGRFTISRDNAKNTVYLQMNSLKPEDTAVYYCAAARYYRYDRYYSWGQGTQVTVTS	high polyreactivity
QVQLVESGGGLVQAGGSLRLSCAASGSTRRYVMGWYRQAPGKERELVAVISRGGSTYYADSVKGRFTISRDNAKNTVNLQMNSLKPEDTAVYYCNVQPVIPRGGDYWGQGTQVTVSS	high polyreactivity
QVQLVESGGGLVQAGGSLRLSCAASGSTRYNAMGWYRQAPGKERELVAAINTSGGSTRYADSVKGRFTISRDNAKNPVYLQMNSLKPEDTAVYYCNAGNSIPGVQKVIVHGLDYWGQGTQVTVSS	high polyreactivity
QVQLVESGGGLVQAGGSLRLSCAASGSTSDEYAMGWYRPAPGKERELVASISSDDTSTHYADSVKGRFTISRDNAKNTVYLQMNSLKPEDTAVYYCAARNTPAYIDYNYWGQGTQVTVSS	low polyreactivity
QVQLVESGGGLVQAGGSLRLSCAASGSTSDINAMGLYRQAPGKERELVAVITDSSNTDYADSVKGRFTISRDNAKNTVYLQMNSLKPEDTAVYYCAADRDEPDPYDYWGQGTQVTVSS	low polyreactivity
QVQLVESGGGLVQAGGSLRLSCAASGSTSDIYAMGWYRQAPGKEREFVAAISLTGGTTYYADSVKGRFTISCDNAKNTVYLQMNSLKPEDTAVYYCNADVGWWGYDDDYWGQGTQVTVSS	high polyreactivity
QVQLVESGGGLVQAGGSLRLSCAASGSTSGQNAKGWYRQPPGNERELVAAISSSAGSTYADSVKGRFTISRDNAKNTVYLQMNSLKPEDTAVYYCNVPYYYTRGSYGYWGQGTQVTVSS	low polyreactivity
QVQLVESGGGLVQAGGSLRLSCAASGSTSKWYAMGWYRQAPGKERELVAAITKTGGRTYYADSVKGRFTFSRDYAKNTVYLQMNSLKPEDTAVYYCAVEYLRGFIVIYDNWGQGTQVTVSS	high polyreactivity
